# In US20200216495A1 (ADRX, published 2020):
# Where “and” joins values, the source holds several entries; their conditions need not be identical. Identical values can stand only once. Square brackets hold non-standard residues; d marks the D form. Ends that are not written are not given here. dCit = NC(=O)NCCC[C@@H](N)C(=O)O
# B1: lkirilyh (peptide)
# peptide: [dL][dK][dI][dR][dI][dL][dY][dH]
# B2: frikirw (peptide)
# peptide: [dF][dR][dI][dK][dI][dR][dW]
# B3: lrvqvrl (peptide)
# peptide: [dL][dR][dV][dQ][dV][dR][dL]
# B4: lkiriryh (peptide)
# peptide: [dL][dK][dI][dR][dI][dR][dY][dH]
# B5: friklkwh (peptide)
# peptide: [dF][dR][dI][dK][dL][dK][dW][dH]
# B6: wkvwvryw (peptide)
# peptide: [dW][dK][dV][dW][dV][dR][dY][dW]
# B7: lkirifyh (peptide)
# peptide: [dL][dK][dI][dR][dI][dF][dY][dH]
# B8: wrlkvrwe (peptide)
# peptide: [dW][dR][dL][dK][dV][dR][dW][dE]
# B9: wrlrlrw (peptide)
# peptide: [dW][dR][dL][dR][dL][dR][dW]
# B10: fkiklkw (peptide)
# peptide: [dF][dK][dI][dK][dL][dK][dW]
# B11: ldlrfkly (peptide)
# peptide: [dL][dD][dL][dR][dF][dK][dL][dY]
# B12: lkiriehy (peptide)
# peptide: [dL][dK][dI][dR][dI][dE][dH][dY]
# B13: felrlhwh (peptide)
# peptide: [dF][dE][dL][dR][dL][dH][dW][dH]
# B14: wwrvklrw (peptide)
# peptide: [dW][dW][dR][dV][dK][dL][dR][dW]
# B15: wklwlrww (peptide)
# peptide: [dW][dK][dL][dW][dL][dR][dW][dW]
# B16: mrlrihw (peptide)
# peptide: [dM][dR][dL][dR][dI][dH][dW]
# B17: fwlklrwf (peptide)
# peptide: [dF][dW][dL][dK][dL][dR][dW][dF]
# B18: wrfkvrw (peptide)
# peptide: [dW][dR][dF][dK][dV][dR][dW]
# B19: wrlkvrwr (peptide)
# peptide: [dW][dR][dL][dK][dV][dR][dW][dR]
# B20: lairihy (peptide)
# peptide: [dL][dA][dI][dR][dI][dH][dY]
# B21: wrlwihw (peptide)
# peptide: [dW][dR][dL][dW][dI][dH][dW]
# B22: wririrw (peptide)
# peptide: [dW][dR][dI][dR][dI][dR][dW]
# B23: wfkiklel (peptide)
# peptide: [dW][dF][dK][dI][dK][dL][dE][dL]
# B24: wrlriwww (peptide)
# peptide: [dW][dR][dL][dR][dI][dW][dW][dW]
# B25: lkiriheh (peptide)
# peptide: [dL][dK][dI][dR][dI][dH][dE][dH]
# B26: wklklrww (peptide)
# peptide: [dW][dK][dL][dK][dL][dR][dW][dW]
# B27: lkleirwh (peptide)
# peptide: [dL][dK][dL][dE][dI][dR][dW][dH]
# B28: fkihikhy (peptide)
# peptide: [dF][dK][dI][dH][dI][dK][dH][dY]
# B29: hrlkvrww (peptide)
# peptide: [dH][dR][dL][dK][dV][dR][dW][dW]
# B30: feirlhhw (peptide)
# peptide: [dF][dE][dI][dR][dL][dH][dH][dW]
# B31: fhleirhw (peptide)
# peptide: [dF][dH][dL][dE][dI][dR][dH][dW]
# B32: frlklrfh (peptide)
# peptide: [dF][dR][dL][dK][dL][dR][dF][dH]
# B33: frlrihwf (peptide)
# peptide: [dF][dR][dL][dR][dI][dH][dW][dF]
# B34: lkirihlh (peptide)
# peptide: [dL][dK][dI][dR][dI][dH][dL][dH]
# B35: wwlrihww (peptide)
# peptide: [dW][dW][dL][dR][dI][dH][dW][dW]
# B36: lririrfh (peptide)
# peptide: [dL][dR][dI][dR][dI][dR][dF][dH]
# B37: wrlrihww (peptide)
# peptide: [dW][dR][dL][dR][dI][dH][dW][dW]
# B38: lkiriwyh (peptide)
# peptide: [dL][dK][dI][dR][dI][dW][dY][dH]
# B39: wrlkvrwh (peptide)
# peptide: [dW][dR][dL][dK][dV][dR][dW][dH]
# B40: wklwlrw (peptide)
# peptide: [dW][dK][dL][dW][dL][dR][dW]
# modifications: not fully specified; printed as wklwlrw
# B41: wrfkfrw (peptide)
# peptide: [dW][dR][dF][dK][dF][dR][dW]
# B42: lkikihy (peptide)
# peptide: [dL][dK][dI][dK][dI][dH][dY]
# B43: wrlkvrww (peptide)
# peptide: [dW][dR][dL][dK][dV][dR][dW][dW]
# B44: hrlkvrwh (peptide)
# peptide: [dH][dR][dL][dK][dV][dR][dW][dH]
# B45: lairihyh (peptide)
# peptide: [dL][dA][dI][dR][dI][dH][dY][dH]
# B46: wrlriew (peptide)
# peptide: [dW][dR][dL][dR][dI][dE][dW]
# B47: wwlklrw (peptide)
# peptide: [dW][dW][dL][dK][dL][dR][dW]
# B48: lkirihyh (peptide)
# peptide: [dL][dK][dI][dR][dI][dH][dY][dH]
# B49: fhirlewh (peptide)
# peptide: [dF][dH][dI][dR][dL][dE][dW][dH]
# B50: fririhhf (peptide)
# peptide: [dF][dR][dI][dR][dI][dH][dH][dF]
# B51: lrieiewh (peptide)
# peptide: [dL][dR][dI][dE][dI][dE][dW][dH]
# B52: wwlrihw (peptide)
# peptide: [dW][dW][dL][dR][dI][dH][dW]
# B53: whvkfelf (peptide)
# peptide: [dW][dH][dV][dK][dF][dE][dL][dF]
# B54: wrlqvrw (peptide)
# peptide: [dW][dR][dL][dQ][dV][dR][dW]
# B55: lkizihy (peptide)
# peptide: [dL][dK][dI][dCit][dI][dH][dY]
# B56: wrlkvqw (peptide)
# peptide: [dW][dR][dL][dK][dV][dQ][dW]
# B57: wkvwvrgw (peptide)
# peptide: [dW][dK][dV][dW][dV][dR]G[dW]
# modifications: not fully specified (residue 7); printed as wkvwvrgw
# B58: fklklrwf (peptide)
# peptide: [dF][dK][dL][dK][dL][dR][dW][dF]
# B59: wrleihw (peptide)
# peptide: [dW][dR][dL][dE][dI][dH][dW]
# B60: wkvqvrw (peptide)
# peptide: [dW][dK][dV][dQ][dV][dR][dW]
# Biological target: Ac-VQIINK-NH2 (SEQ ID NO: 23) (N-terminal acetyl (Ac); C-terminal amide (NH2))
# Assay: cell-based or functional assay
row,Binder,VQIINK Inhibition IC50
1,B1,1.46 µm
2,B2,1.47 µm
3,B3,1.48 µm
4,B4,1.49 µm and 2.92 µm
5,B5,1.52 µm
6,B6,1.53 µm
7,B7,1.53 µm
8,B8,1.54 µm
9,B9,1.54 µm
10,B10,1.55 µm
11,B11,1.55 µm
12,B12,1.57 µm
13,B13,1.57 µm
14,B14,1.57 µm
15,B15,1.58 µm
16,B16,1.58 µm
17,B17,1.63 µm
18,B18,1.66 µm
19,B19,1.7 µm
20,B20,1.71 µm

row,Binder,VQIINK Inhibition IC50
1,B21,1.73 µm
2,B22,1.73 µm
3,B23,1.74 µm
4,B24,1.75 µm
5,B25,1.75 µm
6,B26,1.76 µm
7,B27,1.76 µm
8,B28,1.77 µm
9,B29,1.77 µm
10,B30,1.78 µm
11,B31,1.79 µm
12,B32,1.8 µm
13,B33,1.81 µm
14,B34,1.81 µm
15,B35,1.83 µm
16,B36,1.84 µm
17,B37,1.88 µm
18,B38,1.89 µm
19,B39,1.92 µm
20,B40,1.95 µm

row,Binder,VQIINK Inhibition IC50
1,B41,1.95 µm
2,B42,1.96 µm
3,B43,1.97 µm
4,B44,1.97 µm
5,B45,1.98 µm
6,B46,1.98 µm
7,B47,1.99 µm
8,B48,1.99 µm
9,B49,2.01 µm
10,B50,2.02 µm
11,B51,2.1 µm
12,B52,2.11 µm
13,B53,2.12 µm
14,B54,2.12 µm
15,B55,2.13 µm
16,B56,2.15 µm
17,B57,2.17 µm
18,B58,2.2 µm
19,B59,2.2 µm
20,B60,2.21 µm
